Patent US20160199445A1, “USE OF ARPIN A NEW INHIBITOR OF THE ARP2/3 COMPLEX FOR THE DIAGNOSIS AND TREATMENT OF DISEASES” (CENTRE NATIONAL DE LA RECHERCHE SCIENTIFIQUE, priority 2013, published 2016)

Experiments:
Purified Arp2/3 complex [1] = assay: fluorescence anisotropy, competition with labelled ArpinA bound to purified Arp2/3 complex
Purified Arp2/3 complex [2] = assay: fluorescence anisotropy; labelled ArpinA peptide bound to purified Arp2/3 titrated with purified Arpin FL

Substance: Human full length Arpin (residues 1-226), purified from E. coli, cleaved off GST by TEV protease (from UniProt Q7Z6K5 1-226)
- IC50 (read off the curve) (Purified Arp2/3 complex [1]): 0.3 µM
- Kd (Purified Arp2/3 complex [1]): 205 nM
- Kd (Purified Arp2/3 complex [2]): 200 nM
